Results taken from patent US20200385685A1, “ROBUST DIFFERENTIATION OF HUMAN PLURIPOTENT STEM CELLS INTO ENDOTHELIAL CELLS USING TRANSCRIPTION FACTOR ETV2” (Children`s Medical Center Corporation, priority 2019, published 2020).
Like-named read-outs stand apart in the source and are kept apart here.

Legend:
h-MPCs [1] = assay: Immunofluorescence staining for ETV2 after transfection with modRNA; format: cell-based, human; settings: 6 h after transfection of h-MPCs
Procedure: Cells were seeded in 8-well LAB-TEK chamber slides at a density of 60,000 cell s/cm^2. After confluency, cells were fixed in 4% paraformaldehyde (PFA), permeabilized with 0.1% Triton X-100 in PBS, and then blocked for 30 min in 5% horse serum (Vector, Cat No. 5-2000). Subsequently, cells were incubated with primary antibodies for 30 min at room temperature (RT). Cells were washed 3 times with PBS and then incubated with secondary antibodies for 30 min at RT. Cells were washed 3 times with PBS and stained with 0.5 μg/mL DAPI for 5 min. Slides were mounted with DAKO fluorescence mounting medium (Agilent, Cat No. 5302380-2). Antibody information is detailed in Table 8, above.

h-MPCs [2] = assay: Conversion of h-MPCs into h-iECs after transfection with modRNA(ETV2), flow cytometry; format: cell-based, human; settings: for percentage of h-iECs at 96 h: above 0.5 μg of modRNA(ETV2) per 10^6 h-iPSCs
Description: Antibody information is detailed in Table 8.

Procedure for h-iPSCs: S1-modETV2 protocol (4 days)—h-iPSCs were dissociated into single cells with TrypLE select and plated on Matrigel at a density of 60,000 cells/cm^2 in mTeSR1 medium with 10 μM Y27632. After 24 h, the medium was changed to S1 medium consisting of basal medium supplemented with 6 μM CHIR99021. Basal medium was prepared by adding 1× GlutaMax supplement and 60 μg/mL L-Ascorbic acid into Advanced DMEM/F12. After 48 h, h-MPCs were dissociated into single cells and then transfected with modRNA(ETV2) by either electroporation or lipofection. For electroporation, 2 million h-MPCs were resuspended in 100 μL buffer mixed with 1 μg modETV2. Electroporated cells were then seeded on a 60-mm Matrigel-coated dish in modETV2 medium consisting of basal medium supplemented with 50 ng/mL VEGF-A, 50 ng/mL FGF-2, 10 ng/mL EGF and 10 μM SB431542. For lipofection, 3 μL lipofectamine RNAiMax (ThermoFisher, Cat No. 13778030) were diluted in 50 μL Opti-MEM (ThermoFisher, Cat No. 31985062) and 0.6 μg modRNA(ETV2) diluted in another 50 μL Opti-MEM. Lipofectamine and modRNA(ETV2) were then mixed and incubated for 15 min at room temperature. The lipid/RNA complex was added to 0.5 million h-MPCs in modETV2 medium and transfected cells were then seeded on a 35-mm Matrigel-coated dish. Upon transfection (electroporation or lipofection), cells were cultured for another 48 h before purification. Medium was changed every day throughout this protocol (Table 2). modRNA encoding GFP (TriLink, Cat No. L-7601) at a concentration of 0.2 μg per million h-MPCs served as negative control.
S1-S2, method #1 (4 days)—h-iPSCs were dissociated into single cells with TrypLE select and plated on Matrigel at a density of 60,000 cells/cm^2 in mTeSR1 medium with 10 μM Y27632. […]
Cells were dissociated into single-cell suspensions using TrypLE and washed with PBS supplemented with 100BSA and 0.2 mM EDTA. In indicated experiments, cells were stained with flow cytometry antibodies and analyzed using a Guava easyCyte 6HT/2L flow cytometer (Millipore Corporation, Billerica, Mass.) and FlowJo software (Tree Star Inc., Ashland, Oreg.). […]

## Cc1cc(C)c(/C=C2\C(=O)Nc3ccccc32)[nH]1 [SU5416]
h-iPSCs; S1-S2 protocol
  h-iECs at 96 h: < 2%
h-iPSCs; S1-modETV2 protocol
  h-iECs at 96 h: 94%

## VEGF
h-iPSCs; S1-S2 protocol, beyond 50 ng/mL
  proportion of ETV2+ cells and subsequent conversion to CD31+ h-iECs: failed to further increase

B1: modRNA(ETV2): Chemically modified mRNA encoding ETV2, transcript variant 1 (NM_014209.3), SEQ ID NO: 1, generated by TriLink BioTechnologies (nucleic acid, listed as Homo sapiens)
chain: ATGGACCTGTGGAACTGGGATGAGGCATCCCCACAGGAAGTGCCTCCAGGGAACAAGCTGGCAGGGCTTGAAGGAGCCAAATTAGGCTTCTGTTTCCCTGATCTGGCACTCCAAGGGGACACGCCGACAGCGACAGCAGAGACATGCTGGAAAGGTACAAGCTCATCCCTGGCAAGCTTCCCACAGCTGGACTGGGGCTCCGCGTTACTGCACCCAGAAGTTCCATGGGGGGCGGAGCCCGACTCTCAGGCTCTTCCGTGGTCCGGGGACTGGACAGACATGGCGTGCACAGCCTGGGACTCTTGGAGCGGCGCCTCGCAGACCCTGGGCCCCGCCCCTCTCGGCCCGGGCCCCATCCCCGCCGCCGGCTCCGAAGGCGCCGCGGGCCAGAACTGCGTCCCCGTGGCGGGAGAGGCCACCTCGTGGTCGCGCGCCCAGGCCGCCGGGAGCAACACCAGCTGGGACTGTTCTGTGGGGCCCGACGGCGATACCTACTGGGGCAGTGGCCTGGGCGGGGAGCCGCGCACGGACTGTACCATTTCGTGGGGCGGGCCCGCGGGCCCGGACTGTACCACCTCCTGGAACCCGGGGCTGCATGCGGGTGGCACCACCTCTTTGAAGCGGTACCAGAGCTCAGCTCTCACCGTTTGCTCCGAACCGAGCCCGCAGTCGGACCGTGCCAGTTTGGCTCGATGCCCCAAAACTAACCACCGAGGTCCCATTCAGCTGTGGCAGTTCCTCCTGGAGCTGCTCCACGACGGGGCGCGTAGCAGCTGCATCCGTTGGACTGGCAACAGCCGCGAGTTCCAGCTGTGCGACCCCAAAGAGGTGGCTCGGCTGTGGGGCGAGCGCAAGAGAAAGCCGGGCATGAATTACGAGAAGCTGAGCCGGGGCCTTCGCTACTACTATCGCCGCGACATCGTGCGCAAGAGCGGGGGGCGAAAGTACACGTACCGCTTCGGGGGCCGCGTGCCCAGCCTAGCCTATCCGGACTGTGCGGGAGGCGGACGGGGAGCAGAGACACAATAA
modifications: chemically modified nucleosides
h-MPCs [1]
  cells expressing ETV2: > 85%
h-MPCs [2]; 48 h after transfection of h-MPCs
  cells that were endothelial (VE-Cadherin+/CD31+ cells): 95%
h-MPCs [2]; electroporation
  percentage of h-iECs at 96 h: 95%
h-MPCs [2]; lipofection
  percentage of h-iECs at 96 h: 75%
